Data from paper PMC11873932, “PSKH1 kinase activity is differentially modulated via allosteric binding of Ca^2+ sensor proteins” (Proceedings of the National Academy of Sciences of the …, 2025).
One block for each binder: values may come before it.

Key:
[1] = target: T1, Protein Serine Kinase H1 (PSKH1), recombinant full-length, wild type (human, UniProt P11801 1-424); experiment: cross-linking; SDA (NHS-Diazirine, 1 mg/mL) cross-linking mass spectrometry; recombinant full-length PSKH1 with Calmodulin, RCN3 or UNC119B at 1:2 molar ratio; 30 min in the dark at room temperature, UV 365 nm; bands cut from reducing SDS-PAGE, trypsin; settings: both partners purified
T1 construct: Protein Serine Kinase H1 (PSKH1), human, full length; also called recombinant PSKH1
T1 sequence (looked up): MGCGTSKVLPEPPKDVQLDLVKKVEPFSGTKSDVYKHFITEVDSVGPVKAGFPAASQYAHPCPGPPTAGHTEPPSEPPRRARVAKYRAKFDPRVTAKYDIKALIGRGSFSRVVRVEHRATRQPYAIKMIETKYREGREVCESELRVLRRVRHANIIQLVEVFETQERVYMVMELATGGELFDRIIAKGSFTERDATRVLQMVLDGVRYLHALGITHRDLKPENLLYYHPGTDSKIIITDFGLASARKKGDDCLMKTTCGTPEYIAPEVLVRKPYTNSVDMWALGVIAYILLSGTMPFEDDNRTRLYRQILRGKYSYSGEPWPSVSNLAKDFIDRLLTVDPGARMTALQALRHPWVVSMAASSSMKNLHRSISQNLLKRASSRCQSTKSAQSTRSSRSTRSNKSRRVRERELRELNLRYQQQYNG

[2] = target: T1, Protein Serine Kinase H1 (PSKH1), …; experiment: cell-based or functional assay

- binding result [1]: binds
B1: UNC119B, recombinant full-length (natural protein)
chain: not shown
notes: UNC119B, human, full length

- radiometric kinase assay (ADR1 peptide phosphorylation) of HA-tagged PSKH1 (10 ng) with Ca2+-RCN3 (1 uM) [2]: ~2 fold
B2: Reticulocalbin-3 (RCN3), recombinant (His6-RCN3) (natural protein, human, UniProt Q96D15 21-328, looked up)
chain: KPSPDAGPHGQGRVHQAAPLSDAPHDDAHGNFQYDHEAFLGREVAKEFDQLTPEESQARLGRIVDRMDRAGDGDGWVSLAELRAWIAHTQQRHIRDSVSAAWDTYDTDRDGRVGWEELRNATYGHYAPGEEFHDVEDAETYKKMLARDERRFRVADQDGDSMATREELTAFLHPEEFPHMRDIVIAETLEDLDRNKDGYVQVEEYIADLYSAEPGEEEPAWVQTERQQFRDFRDLNKDGHLDGSEVGHWVLPPAQDQPLVEANHLLHESDTDKDGRLSKAEILGNWNMFVGSQATNYGEDLTRHHDEL
